Earlier results in paper PMC8569824.

Biological target: Amyloid beta (1-40) Aβ 1-40 (Homo sapiens) (UniProt P05067)
Experiment: seed-dependent aggregation inhibition

Sequence of UniProt P05067 (P05067 1-40): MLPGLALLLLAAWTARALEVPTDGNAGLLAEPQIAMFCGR

**Q.** With L-PGDS (from UniProt P41222) as the substance, how does the Ki read?
**A.** Its Ki is 750 nM.
